Assay results: the RNAGym collection of RNA variant scans (doi:10.7554/elife.90254)

B1: LINE1-mini (parent)
chain: GGCAGAGCUCAACACAGCGUGGCAAAGUGGCUGUGGCUAGACUGCC

Variants of: B1
Experiment: self-cleavage, relative activity (ratio to wild type); higher = more cleavage; in vitro, sequencing; the parent is a self-cleaving ribozyme

Variant | self-cleavage
G27A G40C | 0.17
C23U G44C | 0.48
C45G C46U | 0.66
G17A C18A | 0.09
G2A C45A | 1.08
G7U G17C | 0.07
A16U A24G | 0.1
A39U G44A | 0.18
G7A A14G | 0.24
C23A C42A | 0.3
G5U G35C | 0.06
A6C C37A | 0.34
C3U A39U | 0.38
G27U A41U | 0.49
G19A G27C | 0.53
G5A A11C | 0.03
G5U G27A | 0.06
U34A A41U | 0.05
A14G G29U | 0.29
C13U A25G | 0.07
C8G U9C | 0.02
C15U U38A | 0.64
A6C C46U | 0.89
A24C A39C | 1.1

Variant | self-cleavage
C3U G19C | 0.25
A14G G27A | 0.83
G30A C31G | 0.09
C8A A12C | 0.04
C15U A41C | 0.08
G2C A6U | 0.14
C3G G30A | 0.82
C37U G44C | 0.05
G19U C31A | 0.37
C37G A41U | 0.03
G35A G44A | 0.1
G5U G29U | 0.12
C10G U43C | 0.02
G33C A41G | 0.04
G29C G30A | 1.73
U34C G35C | 0.06
A16G G27C | 0.17
A14U C45G | 0.07
C31G C46U | 0.07
U38G A39C | 0.1
C15U G21U | 1.46
C10U G33C | 0.04
A25C U38G | 0.02
G7A G33U | 0.18

Variant | self-cleavage
U28C C37A | 0.03
G36U U43G | 0.1
A16U C31A | 0.21
G29U U32G | 0.27
A12C G22A | 0.03
G22C G33C | 0.06
G19C G33A | 0.15
G29A G35U | 0.15
U20A G30U | 0.93
G29A G36C | 0.09
A6G C42A | 0.12
A4U | 0.29
C3A C10U | 0.19
U9A G36U | 0.1
A12G C15G | 0.03
G1A C31A | 0.12
G17C C23U | 1.61
G33A | 0.11
G5U C31U | 0.06
A12G C42G | 0.02
A6C C42A | 0.11
G7A A41U | 0.18
G33A C45U | 0.1
G2C A25C | 0.15

Variant | self-cleavage
G29A C45U | 1.67
A25G G35U | 0.06
G2A U32G | 0.2
G5A A16G | 0.07
C15A G36C | 0.04
C42U C46A | 0.16
C15G G27U | 0.04
G17C C31U | 0.16
G2A G40C | 0.12
A12U A26G | 0.22
G19U U38G | 0.02
C10U A39U | 0.37
A14G A26C | 0.67
U32G A39C | 0.09
G22C C31A | 0.14
U28G G29U | 0.61
U20G A26U | 0.3
G7A G29U | 0.2
C15A U20C | 0.04
C18G C31A | 0.06
C15G C23G | 0.12
G17A G35C | 0.05
G5C A16U | 0.04
A4C G22U | 0.52

Variant | self-cleavage
C10U A14G | 0.22
A6U A26U | 0.85
G5U A14C | 0.06
A24U G44U | 0.19
C8G C37U | 0.05
C18U G33C | 0.04
G2C A24C | 0.06
G22A A25U | 1.38
A11C U43A | 0.01
C18A U32C | 0.16
G21U G35C | 0.13
A14U G29C | 0.41
A6G C13U | 0.15
C8G C13G | 0.04
C13A C31U | 0.09
G33A U38C | 0.17
C13G C18A | 0.09
G17A U28C | 0.97
A39U C46A | 0.75
G22U U32G | 0.15
C15U C37A | 0.11
C15U G27A | 1.41
A11C A26U | 0.11
G29U G44C | 0.44

Variant | self-cleavage
C18G G36U | 0.07
A6G U38G | 0.01
A16C G36A | 0.12
C8U U38C | 0.22
U43C | 0.14
A6C C45A | 0.47
G17A G40U | 0.07
A6G G44A | 0.46
C23A U28G | 0.44
A4C C10G | 0.03
U28C U38G | 0.01
C23G G30C | 2.06
A26U A39G | 0.22
G29A U32C | 0.18
A11G C37A | 0.02
A4U U38G | 0.03
A4U U9G | 0.07
G7U U34A | 0.08
C8U G33C | 0.07
C3G U9C | 0.03
A4U G21A | 0.48
G17C A39G | 0.1
C15G C45G | 0.08
A25U U38C | 0.31

Variant | self-cleavage
G2U C10A | 0.02
C18A U32A | 0.05
A11C C23G | 0.06
G5U G19C | 0.05
G33C U43C | 0.03
G21U C31A | 0.19
U20C A25U | 1.02
U9G A12C | 0.02
A11C G22A | 0.12
G2A G19U | 0.72
C15A C37G | 0.04
G1C C18U | 0.05
G27C U28G | 0.51
C42G G44A | 0.12
C15U G19A | 0.98
C23U U38G | 0.04
G2A C10U | 0.41
G7U A24U | 0.07
G7U C18G | 0.14
U34G C42G | 0.05
C10A A11G | 0.03
C15U G21C | 1.81
A4U G19U | 0.15
G2U C37G | 0.04

Variant | self-cleavage
A4U A6C | 0.06
G1U C10G | 0.03
A4U C45G | 0.15
A24U G30A | 0.97
G19C G40C | 0.06
C18U G30U | 0.4
A4G G5A | 0.15
G22U C46A | 1.15
G22C G29A | 1.19
G22A C42A | 0.35
G1U A41U | 0.33
U9G U20C | 0.05
G1A C15U | 1.02
C8G A26G | 0.07
A4U C37A | 0.16
C18A C42A | 0.12
G17A U43G | 0.05
G7A C45G | 0.29
G21C G33U | 0.11
G2A A41G | 0.4
G22U G29A | 1.67
A6U A12G | 0.04
A26G U32G | 0.18
C23G A39C | 0.07

Variant | self-cleavage
C15G A24C | 0.02
C10A C37G | 0.01
G29A G30A | 2.29
G29U G33A | 0.1
G30C A39C | 0.26
A26U A41C | 0.07
A11G G36U | 0.02
C8A C23U | 0.27
A25U U43G | 0
A14C C31U | 0.02
C13U G17U | 0.12
A4G C31A | 0.12
G22A C37U | 0.05
G29C U43C | 0.26
A24C C45G | 0.16
A24U C37U | 0.07
U34A G35A | 0.07
U20C U28C | 0.54
U9G G19U | 0.1
A16G A24C | 0.13
A11G G19U | 0.02
A11C G36U | 0.01
G33C G35C | 0.04
G1U U43G | 0.07

Variant | self-cleavage
A6C C23U | 0.62
A14U A16G | 0.09
A26C U28C | 0.4
U9G G21C | 0.08
A6C U20G | 0.35
C13A U34C | 0.06
G29U | 1.09
C18A G30A | 1.63
G2A A12G | 0.14
A4U G22C | 0.08
U43C C45U | 0.13
U43G C45U | 0.19
G22A | 0.81
G29U G30A | 1.92
G27A G40U | 0.14
G36C C45U | 0.29
A14C G29C | 0.04
G21C C23U | 1.27
C3U G7U | 0.11
G5A G30C | 0.12
U20A G27U | 0.81
A25U A26C | 1.79
C10G A25U | 0.1
A11G A26C | 0.03

Variant | self-cleavage
G30A C37U | 0.11
G1U A14G | 0.12
C13G U28C | 0.36
A12C A41C | 0.02
A39C C46G | 0.17
G5A C10U | 0.09
A16C A24G | 0.04
U32A C46U | 0.1
A14U C23U | 0.31
C18A G21A | 1.86
U9G G44A | 0.12
A26C G44A | 0.87
G17C A26U | 1.41
G7A C37G | 0.05
G30C U43A | 0.06
C10U G36U | 0.03
C23G C37A | 0.04
A6U C8G | 0.15
C23G G36A | 0.14
G19A G35A | 0.18
C23U C45G | 0.51
G30A G33C | 0.07
A11U | 0.15
G33A C46U | 0.12

Variant | self-cleavage
G1C G17C | 0.06
U9A C13U | 0.29
A14C G21A | 0.17
U43G C46U | 0.28
G2U U38G | 0.02
U9A U28C | 0.1
A6G A16G | 0.12
G36C | 0.1
A11C G29U | 0.07
C15G U20C | 0.03
C3A G33U | 0.15
G1C G30A | 0.18
A6G G30A | 0.19
A41G C45G | 0.05
A12G G30U | 0.04
A26U C42A | 0.29
C8G C42G | 0.06
C31U U34G | 0.04
U20A U43C | 0.13
A6G U43G | 0
C3A A41C | 0.15
C10G C42A | 0.03
A4U G44C | 0.12
G5U U34C | 0.07

Variant | self-cleavage
U28A U34G | 0.11
G29A C37A | 0.1
U20C A25C | 0.75
G1A U32C | 0.11
C13A A39G | 0.15
G22U A25C | 0.65
C23G C45G | 0.77
G17C C46G | 0.54
A16U G30U | 0.06
G30U G33A | 0.08
G7U C15U | 0.1
G1A G22A | 0.94
C10U C46A | 0.33
A24C G40A | 0.07
A12G A25G | 0.03
A6U C42A | 0.17
C3A U38C | 0.26
G7U U38C | 0.05
A25U C46G | 0.66
G30C C46U | 1.09
A14U U43A | 0.16
A24G C31A | 0.15
U9C G17A | 0.02
C13A C42U | 0.09

Variant | self-cleavage
U20C U43A | 0.05
A16G G44U | 0.05
G35A U38A | 0.1
G22C G40U | 0.14
C13A G17U | 0.11
G17U G27A | 0.38
U9C A11C | 0.02
U38C A39G | 0.06
G1A A25G | 0.39
G30A G35C | 0.08
C10U C23G | 0.26
G35A A41G | 0.05
G21C A25U | 1.14
A41C U43C | 0.08
U9A U43G | 0.28
A6G G7U | 0.05
C8A U43C | 0.17
G29C U32A | 0.31
C10A A12C | 0.04
C8U U9G | 0.09
C23U C31G | 0.16
C18U C46G | 1.24
